# From PMC10023864
# Like-named read-outs stand apart in the source and are kept apart here.
# B1: heptamer RNA (ssRNA)
# RNA: CUCCCGC
# B2: mutant heptamer RNA (ssRNA)
# RNA: CUAAAGC
# How the values were obtained:
# [1] = target: T1, hnRNPK KH3 (Homo sapiens, UniProt P61978 384-463); experiment: ITC
# [2] = target: T1, hnRNPK KH3; experiment: ITC; remark: listed apart in the source
# T1 sequence (P61978 384-463): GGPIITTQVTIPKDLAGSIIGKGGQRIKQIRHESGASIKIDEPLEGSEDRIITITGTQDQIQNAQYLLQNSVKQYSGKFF
Binder,Kd [1] [µM],Kd [2] [µM],binding result [2]
B1,4.74 ± 1,4.31 ± 0.68,–
B2,–,–,no binding
